Reference: publication PMC6713497, “Dimeric structures of quinol-dependent nitric oxide reductases (qNORs) revealed by cryo–electron microscopy” (Science Advances, 2019)

Target: the molecule itself
Experiment: cryo-EM structure; single-particle cryo-EM of detergent-solubilised qNOR-BRIL (50 mM tris, 150 mM NaCl, 0.05% DTM; wild type pH 7.0 at 3 mg/ml, Val495Ala pH 7.5 at 5 mg/ml), C2 symmetry imposed

B1: AxqNOR-BRIL (quinol-dependent nitric oxide reductase from Alcaligenes xylosoxidans fused with apocytochrome b562) (enzyme)
chain: not shown
stoichiometry N: 2
